In patent US20080070238:

Target: DNase I (UniProt P00639)
Assay: cleavage_in_vitro
Conditions: 2'-F at all nucleotides; 100 mM NaOAc, 5 mM MgCl2, 37 C, 5 min

DNase I, sequence (P00639 23-282): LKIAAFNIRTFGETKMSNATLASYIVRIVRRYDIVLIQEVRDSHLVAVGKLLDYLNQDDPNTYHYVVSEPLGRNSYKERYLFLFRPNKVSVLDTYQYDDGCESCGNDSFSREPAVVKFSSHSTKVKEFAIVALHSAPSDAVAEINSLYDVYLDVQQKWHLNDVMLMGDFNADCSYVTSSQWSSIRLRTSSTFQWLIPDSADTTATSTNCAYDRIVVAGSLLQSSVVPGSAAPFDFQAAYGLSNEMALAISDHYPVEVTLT

In the case of “NNNNNNNNNNNNNNNNNNNNNNNNNNNNNNNNNNNNNNNNCACGAGTGAAGTCTGAGCTCC [BSA-1A FNA library (primer removed)]”, the activity (fold more stable than DNA) is reported as > 100.
